Results from patent US8653023.

Biological target: protein phosphatase 2A (PP2A), endogenous, in N27 cell lysate

B1: protein kinase C delta (PKCδ), endogenous, in N27 cell lysate (immortalized rat fetal mesencephalic dopaminergic neuronal cells) (protein)
chain: MAPFLRISFNSYELGSLQAEDDASQPFCAVKMKEALTTDRGKTLVQKKPTMYPEWKSTFDAHIYEGRVIQIVLMRAAEDPMSEVTVGVSVLAERCKKNNGKAEFWLDLQPQAKVLMCVQYFLEDGDCKQSMRSEEEAMFPTMNRRGAIKQAKIHYIKNHEFIATFFGQPTFCSVCKEFVWGLNKQGYKCRQCNAAIHKKCIDKIIGRCTGTATNSRDTIFQKERFNIDMPHRFKVYNYMSPTFCDHCGTLLWGLVKQGLKCEDCGMNVHHKCREKVANLCGINQKLLAEALNQVTQKASRKPETPETVGIYQGFEKKTAVSGNDIPDNNGTYGKIWEGSNRCRLENFTFQKVLGKGSFGKVLLAELKGKERYFAIKYLKKDVVLIDDDVECTMVEKRVLALAWENPFLTHLICTFQTKDHLFFVMEFLNGGDLMFHIQDKGRFELYRATFYAAEIICGLQFLHGKGIIYRDLKLDNVMLDKDGHIKIADFGMCKENIFGENRASTFCGTPDYIAPEILQGLKYSFSVDWWSFGVLLYEMLIGQSPFHGDDEDELFESIRVDTPHYPRWITKESKDIMEKLFERDPAKRLGVTGNIRLHPFFKTINWNLLEKRKVEPPFKPKVKSPSDYSNFDPEFLNEKPQLSFSDKNLIDSMDQTAFKGFSFVNPKYEQFLE
B1 was tested, and the “32P-kinase assay: phosphorylation of immunoprecipitated PP2A” value was “PP2A immunoprecipitated from N27 cells was effectively phosphorylated by PKCδ immunoprecipitates”.
